Literature values in PMC9528458.

Molecular target: Axin DAX (Homo sapiens) (UniProt O15169)
Sequence (O15169 780-862): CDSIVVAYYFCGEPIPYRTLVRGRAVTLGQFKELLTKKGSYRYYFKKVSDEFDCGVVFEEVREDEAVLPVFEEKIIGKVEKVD

Dishevelled DIX, sequence (O14641 8-96): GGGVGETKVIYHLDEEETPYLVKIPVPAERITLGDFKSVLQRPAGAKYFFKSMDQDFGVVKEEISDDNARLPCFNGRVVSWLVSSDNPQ

Kd: 15 µM
Substance: Dishevelled DIX (from UniProt O14641)
